{
  "source": "paper PMC5201011",
  "about": "(2016)",
  "parents": {"B1": {"name": "GST–Tks5-PX [not stated] / FLAG–Rab40b [not stated] (parent complex)", "chain 1": "YCVQDATVVDVEKRRNPSKHYVYIINVTWSDSTSQTIYRRYSKFFDLQMQLLDKFPIEGGQKDPKQRIIPFLPGKILFRRSHIRDVAVKRLKPIDEYCRALVRLPPHISQCDEVFRFFEARPEDV", "chain 2": "MSALGSPVRAYDFLLKFLLVGDSDVGKGEILASLQDGAAESPYGHPAGIDYKTTTILLDGRRVKLQLWDTSGQGRFCTIFRSYSRGAQGVILVYDIANRWSFDGIDRWIKEIDEHAPGVPKILVGNRLHLAFKRQVPTEQAQAYAERLGVTFFEVSPLCNFNITESFTELARIVLLRHGMDRLWRPSKVLSLQDLCCRAVVSCTPVHLVDKLPLPIALRSHLKSFSMANGLNARMMHGGSYSLTTSSTHKRSSLRKVKLVRPPQSPPKNCTRNSCKIS"}},
  "data": [
    {"variants_of": "B1", "assay": "glutathione bead pulldown, quantified immunoblot; three independent experiments; parent: 1; read off a plot", "units": {"response": "Arbitrary Units"}, "values": [
      {"variant": "chain 1 Y21A", "response": "~0.57"},
      {"variant": "chain 1 I24A", "response": "~0.86"}
    ]}
  ]
}
